Assay results published in US12269859B2, “Synthetic immune receptors and methods of use thereof” (Angeles Therapeutics, Inc., priority 2016, dated 2025).

System: target antigen-expressing cell line
Assay: Jurkat NFAT-GFP assay, coculture with target cell lines expressing the respective target antigen (summary Table 10A)
Type: cell-based, human
Set-up: key: The signs +/−, +, 2+ etc. after the name of the cell lines indicate the relative degree of positivity on the Jurkat-NFAT-GFP assay as measured by the % GFP positive cells; +: relative degree of positivity on the Jurkat-NFAT-GFP assay as measured by the % GFP positive cells; 2+: relative degree of positivity on the Jurkat-NFAT-GFP assay as measured by the % GFP positive cells
Details: relative % GFP positive cells; for NFAT-GFP ASSAY Positive Cell lines: RAJI: SIR-expressing Jurkat-NFAT-GFP cells cocultured with RAJI; for NFAT-GFP ASSAY Positive Cell lines: NALM6: SIR-expressing Jurkat-NFAT-GFP cells cocultured with NALM6
Outline: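 Stable SIR expression in Jurkat-NFAT-GFP cells by lentiviral transfer and puromycin selection; coculture with target cells (E:T approximately 1:2) for 4 to 18 hours; flow cytometric measurement of NFAT-driven GFP; scoring as positive when % GFP-positive cells exceeds that of parental reporter cells.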

B1: 030817-E07 (protein)
chain: MALPVTALLLPLALLLHAARPEIVLTQSPSSLSASVGDRVTITCRASSSLSFMHWYQQKPGKAPKPWIYATSNLASGVPSRFSGSGSGTDYTLTISSLQPEDFATYFCHQWSSNPLTFGGGTKVEIKLEIQNPDPAVYQLRDSKSSDKSVCLFTDFDSQTNVSQSKDSDVYITDKCVLDMRSMDFKSNSAVAWSNKSDFACANAFNNSIIPEDTFFPSSDVPCDVKLVEKSFETDTNLNFQNLSVIGFRILLLKVAGFNLLMTLRLWSSRAKRSGSGVKQTLNFDLLKLAGDVESNPGPTSMDWIWRILFLVGAATGAHSFEQVQLVQSGAEVKKPGASVKVSCKASGYTFTSYNMHWVRQAPGQRLEWIGAIYPGNGDTSYNQKFKGRVTVTRDTSANTAYMELSSLKSEDTAVYYCARSHYGSNYVDYFDYWGQGTLVTVSSTREDLKNVFPPEVAVFEPSKAEIAHTQKATLVCLATGFYPDHVELSWWVNGKEVHSGVCTDPQPLKEQPALNDSRYCLSSRLRVSATFWQNPRNHFRCQVQFYGLSENDEWTQDRAKPVTQIVSAEAWGRADCGITSASYHQGVLSATILYEILLGKATLYAVLVSALVLMAMVKRKDSRGRAKRSGSGATNFSLLKQAGDVEENPGPSRGHMTEYKPTVRLATRDDVPRAVRTLAAAFADYPATRHTVDPDRHIERVTELQELFLTRVGLDIGKVWVADDGAAVAVWTTPESVEAGAVFAEIGPRMAELSGSRLAAQQQMEGLLAPHRPKEPAWFLATVGVSPDHQGKGLGSAVVLPGVEAAERAGVPAFLETSAPRNLPFYERLGFTVTADVEVPEGPRTWCMTRKPGA
SIR-expressing Jurkat-NFAT-GFP cells cocultured with U266
  NFAT-GFP ASSAY Positive Cell lines: U266: U266 (+/−)

B2: 031417-L06 (protein)
chain: MALPVTALLLPLALLLHAARPQIVLSQSPAILSASPGEKVTMTCRASSSVSYMHWYQQKPGSSPKPWIYATSNLASGVPARFSGSGSGTSYSFTISRVEAEDAATYYCQQWTFNPPTFGGGTRLEIKRTVAALEDLKNVFPPEVAVFEPSKAEIAHTQKATLVCLATGFYPDHVELSWWVNGKEVHSGVCTDPQPLKEQPALNDSRYCLSSRLRVSATFWQNPRNHFRCQVQFYGLSENDEWTQDRAKPVTQIVSAEAWGRADCGITSASYHQGVLSATILYEILLGKATLYAVLVSALVLMAMVKRKDSRGRAKRSGSGATNFSLLKQAGDVEENPGPTSMDWIWRILFLVGAATGAHSFEQAYLQQSGAELVRPGASVKMSCKASGYTFTSYNMHWVKQTPRQGLEWIGGIYPGNGDTSYNQKFKGKATLTVGKSSSTAYMQLSSLTSEDSAVYFCARYDYNYAMDYWGQGTSVTVSSASTRIQNPDPAVYQLRDSKSSDKSVCLFTDFDSQTNVSQSKDSDVYITDKCVLDMRSMDFKSNSAVAWSNKSDFACANAFNNSIIPEDTFFPSSDVPCDVKLVEKSFETDTNLNFQNLSVIGFRILLLKVAGFNLLMTLRLWSSRAKRSGSGVKQTLNFDLLKLAGDVESNPGPSRGHMTEYKPTVRLATRDDVPRAVRTLAAAFADYPATRHTVDPDRHIERVTELQELFLTRVGLDIGKVWVADDGAAVAVWTTPESVEAGAVFAEIGPRMAELSGSRLAAQQQMEGLLAPHRPKEPAWFLATVGVSPDHQGKGLGSAVVLPGVEAAERAGVPAFLETSAPRNLPFYERLGFTVTADVEVPEGPRTWCMTRKPGA
  NFAT-GFP ASSAY Positive Cell lines: RAJI: RAJI (+/−)

B3: 031417-N06 (protein)
chain: MALPVTALLLPLALLLHAARPQIVLSQSPAILSASPGEKVTMTCRASSSVSYMHWYQQKPGSSPKPWIYATSNLASGVPARFSGSGSGTSYSFTISRVEAEDAATYYCQQWTFNPPTFGGGTRLEIKRTVAALEIQNPDPAVYQLRDSKSSDKSVCLFTDFDSQTNVSQSKDSDVYITDKCVLDMRSMDFKSNSAVAWSNKSDFACANAFNNSIIPEDTFFPSSDVPCDVKLVEKSFETDTNLNFQNLSVIGFRILLLKVAGFNLLMTLRLWSSRAKRSGSGVKQTLNFDLLKLAGDVESNPGPTSMDWIWRILFLVGAATGAHSFEQAYLQQSGAELVRPGASVKMSCKASGYTFTSYNMHWVKQTPRQGLEWIGGIYPGNGDTSYNQKFKGKATLTVGKSSSTAYMQLSSLTSEDSAVYFCARYDYNYAMDYWGQGTSVTVSSASTREDLKNVFPPEVAVFEPSKAEIAHTQKATLVCLATGFYPDHVELSWWVNGKEVHSGVCTDPQPLKEQPALNDSRYCLSSRLRVSATFWQNPRNHFRCQVQFYGLSENDEWTQDRAKPVTQIVSAEAWGRADCGITSASYHQGVLSATILYEILLGKATLYAVLVSALVLMAMVKRKDSRGRAKRSGSGATNFSLLKQAGDVEENPGPSRGHMTEYKPTVRLATRDDVPRAVRTLAAAFADYPATRHTVDPDRHIERVTELQELFLTRVGLDIGKVWVADDGAAVAVWTTPESVEAGAVFAEIGPRMAELSGSRLAAQQQMEGLLAPHRPKEPAWFLATVGVSPDHQGKGLGSAVVLPGVEAAERAGVPAFLETSAPRNLPFYERLGFTVTADVEVPEGPRTWCMTRKPGA
  NFAT-GFP ASSAY Positive Cell lines: NALM6: (+)

B4: 030917-Z01 (protein)
chain: MALPVTALLLPLALLLHAARPEIVLTQSPGTLSLSPGERATLSCRASSSVPYIHWYQQKPGQAPRLLIYATSALASGIPDRFSGSGSGTDFTLTISRLEPEDFAVYYCQQWLSNPPTFGQGTKLELKRLEDLKNVFPPEVAVFEPSKAEIAHTQKATLVCLATGFYPDHVELSWWVNGKEVHSGVCTDPQPLKEQPALNDSRYCLSSRLRVSATFWQNPRNHFRCQVQFYGLSENDEWTQDRAKPVTQIVSAEAWGRADCGITSASYHQGVLSATILYEILLGKATLYAVLVSALVLMAMVKRKDSRGRAKRSGSGATNFSLLKQAGDVEENPGPTSMDWIWRILFLVGAATGAHSFEEVQLVQSGAEVKKPGESLKLSCKGSGRTFTSYNMHWVRQMPGKGLEWMGAIYPLTGDTSYNQKSKLQVTISADKSISTAYLQWSSLKASDTAMYYCARSTYVGGDWQFDVWGKGTTVTVSSTRIQNPDPAVYQLRDSKSSDKSVCLFTDFDSQTNVSQSKDSDVYITDKCVLDMRSMDFKSNSAVAWSNKSDFACANAFNNSIIPEDTFFPSSDVPCDVKLVEKSFETDTNLNFQNLSVIGFRILLLKVAGFNLLMTLRLWSSRAKRSGSGVKQTLNFDLLKLAGDVESNPGPSRGHMTEYKPTVRLATRDDVPRAVRTLAAAFADYPATRHTVDPDRHIERVTELQELFLTRVGLDIGKVWVADDGAAVAVWTTPESVEAGAVFAEIGPRMAELSGSRLAAQQQMEGLLAPHRPKEPAWFLATVGVSPDHQGKGLGSAVVLPGVEAAERAGVPAFLETSAPRNLPFYERLGFTVTADVEVPEGPRTWCMTRKPGA
  NFAT-GFP ASSAY Positive Cell lines: NALM6: (+/−)
  NFAT-GFP ASSAY Positive Cell lines: RAJI: RAJI (2+), NALM6

B5: 031517-W03 (protein)
chain: MALPVTALLLPLALLLHAARPLEGKPIPNPLLGLDSTGSGEDLKNVFPPEVAVFEPSKAEIAHTQKATLVCLATGFYPDHVELSWWVNGKEVHSGVCTDPQPLKEQPALNDSRYCLSSRLRVSATFWQNPRNHFRCQVQFYGLSENDEWTQDRAKPVTQIVSAEAWGRADCGITSASYHQGVLSATILYEILLGKATLYAVLVSALVLMAMVKRKDSRGRAKRSGSGATNFSLLKQAGDVEENPGPTSMALPVTALLLPLALLLHAARPEIVLTQSPSSLSASVGDRVTITCRASSSLSFMHWYQQKPGKAPKPWIYATSNLASGVPSRFSGSGSGTDYTLTISSLQPEDFATYFCHQWSSNPLTFGGGTKVEIKGGGGSGGGGSGGGGSQVQLVQSGAEVKKPGASVKVSCKASGYTFTSYNMHWVRQAPGQRLEWIGAIYPGNGDTSYNQKFKGRVTVTRDTSANTAYMELSSLKSEDTAVYYCARSHYGSNYVDYFDYWGQGTLVTVSSTREQKLISEEDGSGIQNPDPAVYQLRDSKSSDKSVCLFTDFDSQTNVSQSKDSDVYITDKCVLDMRSMDFKSNSAVAWSNKSDFACANAFNNSIIPEDTFFPSSDVPCDVKLVEKSFETDTNLNFQNLSVIGFRILLLKVAGFNLLMTLRLWSSRAKRSGSGVKQTLNFDLLKLAGDVESNPGPSRGHMTEYKPTVRLATRDDVPRAVRTLAAAFADYPATRHTVDPDRHIERVTELQELFLTRVGLDIGKVWVADDGAAVAVWTTPESVEAGAVFAEIGPRMAELSGSRLAAQQQMEGLLAPHRPKEPAWFLATVGVSPDHQGKGLGSAVVLPGVEAAERAGVPAFLETSAPRNLPFYERLGFTVTADVEVPEGPRTWCMTRKPGA
  NFAT-GFP ASSAY Positive Cell lines: RAJI: RAJI (+/−)

B6: 041417-B06 (protein)
chain: MALPVTALLLPLALLLHAARPEVQLQQSGPGLVKPSQTLSLTCAISGDSVLSNSDTWNWIRQSPSRGLEWLGRTYHRSTWYDDYASSVRGRVSINVDTSKNQYSLQLNAVTPEDTGVYYCARDRLQDGNSWSDAFDVWGQGTMVTVSSLEIQNPDPAVYQLRDSKSSDKSVCLFTDFDSQTNVSQSKDSDVYITDKCVLDMRSMDFKSNSAVAWSNKSDFACANAFNNSIIPEDTFFPSSDVPCDVKLVEKSFETDTNLNFQNLSVIGFRILLLKVAGFNLLMTLRLWSSRAKRSGSGVKQTLNFDLLKLAGDVESNPGPTSMDWIWRILFLVGAATGAHSFEQSALTQPASVSGSPGQSITISCTGTSSDVGGYNYVSWYQQHPGKAPKLMIYDVSNRPSGVSNRFSGSKSGNTASLTISGLQAEDEADYYCSSYTSSSTLVYVFGTGTKVTVLTREDLKNVFPPEVAVFEPSKAEIAHTQKATLVCLATGFYPDHVELSWWVNGKEVHSGVCTDPQPLKEQPALNDSRYCLSSRLRVSATFWQNPRNHFRCQVQFYGLSENDEWTQDRAKPVTQIVSAEAWGRADCGITSASYHQGVLSATILYEILLGKATLYAVLVSALVLMAMVKRKDSRGRAKRSGSGATNFSLLKQAGDVEENPGPSRGHMTEYKPTVRLATRDDVPRAVRTLAAAFADYPATRHTVDPDRHIERVTELQELFLTRVGLDIGKVWVADDGAAVAVWTTPESVEAGAVFAEIGPRMAELSGSRLAAQQQMEGLLAPHRPKEPAWFLATVGVSPDHQGKGLGSAVVLPGVEAAERAGVPAFLETSAPRNLPFYERLGFTVTADVEVPEGPRTWCMTRKPGA
  NFAT-GFP ASSAY Positive Cell lines: RAJI: RAJI (+/−)
